Laboratory results taken from patent US5874209.

How the values were obtained:
[1] = test system: T1, NF-IL6/LAP (wild type, C/EBP beta), P21272-2; assay: cell_activity; conditions: increase in CAT transactivation with PKC alpha plus TPA, HepG2
T1 sequence: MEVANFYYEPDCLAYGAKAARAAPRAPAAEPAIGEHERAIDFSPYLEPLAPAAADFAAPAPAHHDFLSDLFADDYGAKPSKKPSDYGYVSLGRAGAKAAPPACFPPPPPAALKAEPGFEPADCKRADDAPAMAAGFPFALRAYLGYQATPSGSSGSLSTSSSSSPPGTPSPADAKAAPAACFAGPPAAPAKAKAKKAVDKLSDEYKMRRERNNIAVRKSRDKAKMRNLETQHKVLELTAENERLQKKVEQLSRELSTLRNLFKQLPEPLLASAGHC

[2] = test system: LAP(Asp105)/GAL4 chimera S105D (/ Saccharomyces cerevisiae); assay: cell_activity; conditions: luciferase relative to LAP(Ser105)/GAL4

Substance | activity [1] [fold] | activity [2] [fold]
D-CAT reporter (albumin D-site) | 5 | 
5xGAL4-LUC reporter GAL4 sites |  | 3
